# The DeepSol protein solubility set
# Assay: soluble on expression in E. coli; label from the status in PepcDB or PDB records
row,Sequence,soluble on expression in E. coli
1,MGSDKIHHHHHHMEIFDYVILGAGLGGLSAAACLTRQGYRVVVLEQHYLPGGCCHTFDYGEYHFCADVHYISQCGSGQTITQFLDYIHQNVPFNSLDSDCIDRVITPEADFKIPLGWENLRSRLLSTFPEEAGAINHYCNEIQQLHQEIRNLVQEVRWYDQKLSDWLKLPKYLNLFWKRNWTLQDLYNHVGLSPKLQAVLAGQSGDYALPPQEIALLTHTSLVWDYSEGAYYPKHHFKHLVDTIADVITAGGGVIKYSTPVSHIQVSNHSVHSVLADGNSYRASKAYISDLDPKLTVELMHDITALSQKEYKRLTNYQYSASAFNIYLGLDSRFDPQRYGIGNWNVWYYPTGDLNREYQQQLEGDFSQPWIFLSCPTMKSSEPGMGPEGHHVLEIATVCSYEPFEHLYKSNPKAYKAKKREFYQQIMTSVRDLIPDVDKYARMKVYGTPTTSEFYLGQPQGNIYGAKLVPKQVGLNRLGYMTELPNLFLVGASAGYPSVPGVIGNGMQVVELLTGQSVWHKAAERPQSLVAIG,not soluble
2,MSLYATMESVRLQSEAQQLAEMILQSETAENYRNCYKRLQEDEEAGRIIRSFIKIKEQYEDVQRFGKYHPDYREISRKMREIKRELDLNDKVADFKRAENELQSILDEVSVEIGTAVSEHVKVPTGNPYFDGLSSCGGGCGSGGSCGCKVSEGHHHHHH,soluble
3,GMNNIQAIRKKVETQIDDLQNKTDEIAEFNQAKVLDAFQENKVSDFHFHPSTGYGYDDEGRDTLERVYATVFKTEAALVRPQIISGTHAISTVLFGILRPDDELLYITGQPYDTLEEIVGIRKQGQGSLKDFHIGYSSVPLLENGDVDFPRIAKKMTPKTKMIGIQRSRGYADRPSFTIEKIKEMIVFVKNINPEVIVFVDNCYGEFVEYQEPPEVGADIIAGSLIKNPGGGLAKTGGYIAGKEALVDLCGYRLTTPGIGREAGASLYSLLEMYQGFFLAPHVTAQAIKGARFTAAMLAEFGVEADPVWDAPRTDLIQSVSFHNKEKMVAFAQAIQAASPVNAHVLPIGAYMPGYEDDVIMAAGTFIQGASLELTADGPIREPYQLYVQGGLTYEHIKIAVTRAIQKIV,soluble
4,RTHIIGIDQTLVDIEAKVDDAFIEKYGLSKGHSLVIDNDKAEMLYNELKDNNMISNEFAGGTIGNTLHNYSVLADDKSTLLGVMSEDIHIGSYSYRYLCNTSSRMDLNYLQPVPGAIGRCFALISEDGERTFAISEGDMNQLRAESIPEKIFKNASALVLTAYLVRCKEGDPMPEATMKAIEYAKKYDVPVVLTMGTKFVVQDDPQYWRDFLNDHVTVVAMNEEEGEALTGATDPLEAANKTLEWVDLVLCTAGPVGLYMAGYTEDSAKRETSLPLLPGTIAEFNQFEFSRPAVKDSCENPIKVFSHISPYMGGPEKIKNTNGAGDGALSALLHDMAANHYHRNNVPNSSKHQHSFLTYSSFSQVCKYSNRVSFEVLAQHSPRLSRGLPEREDSLEEAYWE,soluble
5,MSLSQDGLLGEVLSEGVLTLTLGRAPAHPLSRAMIAALHDALRRAMGDDHVHVLVIHGPGRIFCAGHDLKEIGRHRADPDEGRAFVTDLFEACSALMLDLAHCPKPTIALVEGIATAAGLQLMAACDLAYASPAARFCLPGVQNGGFCTTPAVAVSRVIGRRAVTEMALTGATYDADWALAAGLINRILPEAALATHVADLAGALAARNQAPLRRGLETLNRHLELPLEQAYALATPVMVEHFMDPGRRHLDWIDEGHHHHHH,soluble
6,MSRRRQFDDEDEVQMKRRRGAPLIEDVEKKLQGVIGKVGENTGSSIECNLDKLTAFLHDDLEKYRASIIDIIAGCAIYLPNRVTVYTTLVGLLNSKNFNFGGDVVEKLISEQQDLLSKQKYQEAQNLAIFLCDLGNSGVLTAQSIGEYLESFIAAAFEENMPQVRNDYYIQTVLRCLPWIGKELTEKAPEQMENIGEAIGKYLELRNKNHVALLQVWREGSTDQKQEDYLESLSAQIEALRNADWVENHIPRHYSGFETTLQDALQHNLPSFQSPEHTSDMIYPYPLVVFRLFQDADCSAFSSKPLPGDSSIDRFLFEGEIAWIIEKNQFNRKACARELLAFAEENPSVPIGFLIFETIFGQMLRLPHAPYPAIFHCSLVLELLKLKPDDYPQILVQTVECIYRRADSMQPVCIDRMVDWFSFHLSNFQYRYTWTDWKDCLNKDAFSGSQIFVREVIEKCRRFGSYEKIIAALPQDFVKIHPCSPEVRYLIDEEDTALVQRAETFTQMFQERQPAEAFLNELKSNDENDELPYNINEFGLFVMVMLKMASKTYSHNFSALFRYQTTLKTVCDASELYQEKLLETLYSCWKTNQQMLMILTDKLLKMQVIDCSAVVGWLFDEKMWQEHDRQWLFEVLNQALEKLTRQINVVEKDIKELTEKTENKIKEEDDEESDIKMDEDETKEEKFKQDLEDLENNKEKLERMVTFQKGLFNDFLIAFIEEIKNAATSNTSEMDGSGDTPGTQTPKFMWLRGRFCHVLLAHAETLLKHSSNIADEVFSEGTDPSIIECFNQFQSLRL,not soluble
7,MGSDKIHHHHHHMTPSIPPEVAQHLGYYVYLYVDPRTEQVFYVGKGQGQRVLSHLSAEGESRKAQILAELRQAQLSPRLDILAHGLPDEATAYRIEAAAIDLLGLDSLSNLVRGWQSVRSGRRSLEELVTYYAAPPAVITDPVMLIRSNRLYWHGMPAQELYEATRGVWKVAKWRQQEVKYALAVFEGVVREVYTIESWHPAGQTPYQTRLAEAVNDPQRWEFVGHVAPEEVRNRYLYHSVTASFARNAQNPIAYPPVT,not soluble
8,MQEKTTESRILDATGRPFKVREAKELQTDDVRLAGLHRTFSNHPSSGLTPASAASILLSAEQGDLIAQCELAEDIEEKDGHLFAELDKRKRALIGVDYYLEPPSNPTPQEKADTEYLQQMLEEGGWIKSLIKSIADAILKGFSMHELAWSRELGEWFVEVPEYRDPSWFMTHPERRNELRLRDSTHEGAELWPFGWIKHIHPAKSGYVSRSGLVRQLIWPFIFKNYSVRDLAEFLEIYGLPLRIGQYPAGASDGEKRALLNAVMSIGHNAGGIMPKGMVMDFHSAATGQADPFELMMTWAEKTMSKVILGGTLTTQADGKSSTNALGNVHNEVRQELRDADLALVAETLTRDLIAPLYALNCKSYRSHRRHPRLVFDTTEAEDLRALAYPLRAFVSMGMQIPQNWLHEKTRIPKPANGEAVLVIQQDDPNATAASQTALAALSAKEGAAKQPDASLNEPSQTALDKALDALTQGQMSEAYMGMVEPLLAQLQSEPEQLRAQLEQNYPNMDTEQLTETLARLMFVAELWGMANA,not soluble
9,MNTPFDFPEGAGRLVYVRPVPVAELPEDVQSMARGLDHIYALHGADGERLALVRDRHLAFVLARQNDLAPVNVH,not soluble
10,MSTNEAAASQEDIALAQGAVLVKSCQVPDGSIPIRGFDFSTASGPDFSLSAILSSYMSTGFQATHLAQAIQQVNQMLSLRDTPLTCDDDEKLFPYPEGRQKRSCTIFLGYTSNLVTSGLREVLRYCVQRNLVDCIVTSAGGIEEDLIKCLKPSYLGTFTMDGAKLRSNGMNRAGNVLIPNDNYCAFEDWLMPILDECLVEQEEKHLNWTPSKLIQRLGERIGDESSILYWAAKHRIPVFCPALTDGSLGDMLYFHSVKSSPGLRVDIVEDVRHINTIAVKSFKTGSIILGGGVVKHHINNANLMRNGADHTVYINTGQEFDGSDSGAQPDEAVSWGKVKPSAGAVKVHAEATLVFPLLVAETFAKHEGHKD,not soluble
11,MSGCPFAGNSVGYTLKNVSMEDNEEDRAQTGVNRASKGGLIYGNYLQLEKILNAQELQSEVKGNKIHDEHLFIITHQAYELWFKQILWELDSVREIFQNGHVRDERNMLKVIARMHRVVVIFKLLVQQFSVLETMTALDFNDFREYLSPASGFQSLQFRLLENKIGVLQSLRVPYNRKHYRDNFGGDYNELLLKSEQEQTLLQLVEAWLERTPGLEPNGFNFWGKFEKNILKGLEEEFLRIQAKTDSEEKEEQMAEFRKQKEVLLCLFDEKRHDYLLSKGERRLSYRALQGALMIYFYREEPRFQVPFQLLTSLMDIDTLMTKWRYNHVCMVHRMLGTKAGTGGSSGYHYLRSTVSDRYKVFVDLFNLSTYLVPRHWVPKMNPIIHKFLYTAEYSDSSYFSSDESD,soluble
12,MASTGLRVDLYEEHGRVGMPEHCTGIVSERTVNTIGREARETIIDSYDSLEIRFRGETLAVLDVGTVYRLDRVRLEELLLESLMSLGGRAQLGKRVHSVGIEGSVKAGGSEARYDAVILADGAHGELHRMLDLGYRGDYYYGLNILVPGKRESTILVDFILDRGLAFTWDVPTVGSVSVAGAMGTLAGVKRFFEVLKPRAFKVYGGRIPAGPPAERLRRGRVYVVGDAGGLVKPLSGGGLYPNAKAAKLAASLIKRGLDVGEALEKSLSIVSHELRAQHAVARLVYGTRVLETISRAVGGAPLRLRLDYDTHHQLVISTLSQVGALSSQRLAAAALRGGGLEAPLSLVKVLYHSSASAYKRLASGRLPGVLEHHHHHH,not soluble
13,MSLTPYEPFRHLDQMRREFDRFFPDFPIDLPNRHLTLSPKMDVHETDHEVILECDIPGLESKEDLQIDVEPRSVRIEGRIKRSKEVHDERFYRREREIGHFRRVVPLPAEVAEDDIRAAYRNGVLEVRMRKRLDDRRRTIDVEFHLEHHHHHH,soluble
14,MNEKNRQLPAFTPRNRRTHPISAERKQLGVDDIVDHCMIYVDGRAIQGWFDYGSGLKRVKDFIASGHKAFMWLSLEEPSEQHMMQVADDLHIHELIVEDAVTAHQRPKVERYDDQIFMVVRSVFYRDHETVDDANEIIKTGEVQMLIGEHFIITIRHRTPMPDLTMRLDDPQEISSYGPMIIAWAWADYLVDGYLRIVNILAEEVDELEEEVFTPGSSFNIEHIYMIKREILEMRHAIDPLAPALRMLVTQHKDMIAKQLRSYLRDVLDHEMVAKDYVANFDERLSSLIDAGVAKISLQQNSDMRAIS,not soluble
15,MGSDKIHHHHHHMKILKHSLFTSVVNKMRLIHHQDDTAKLSLLITGMSGTGKSTLVDWYEQQYPVEYTPEVTLKRVICVHLTKPNSPINLLEQIINAMGTSYIPRRRTLNKLLHQLKCLLEACQTELIILDEAQECLPDSDGIKAQSMAKAFVAIIDKCNVPLILIGTPALKRLLKLKYLADVKNISREEQLSRRFIAPCQLNIFLSHCDAWVNVINFFGKTKGLRNLNTKDADILDRLYVATYGRIGLIKKLFAFTQLNETSDLQATFYDAYELVDTTGEANPFNQQDYTYAAIIKKAENIERIYFTHNKTHPSEKRVADRLFH,not soluble
16,MNHPAHHGPTVTPKRRHPDSTGAAPVGIVIATRNRRASLAVTVRNLLALPERPDVLVVDNASTDDTRAMLARDFPQVRVLPLPYNRGALARTHGVRALDTPYVAFSDDDSWWAPGALGAAARHFDDHPRLGLLSARTLVGPGDAADPLNDLLADSPLGTATDLPGTQVLGFLGCAAVARRTAYLDAGGYHPLLFFGGEETLLAYDLAARGWGVTHCPDVIAHHHPHPRPRTGRPAVVRRNALLTAWLRRPLPHALARTRALAADARRDPHARHALRETLTRLPAALRARRPLPPHVERAARLLDGADGPDGPGGAVSLEHHHHHH,soluble
17,MASKHAAKTVDPKDLSPAWKVLQMKLNEEKAEKEKAAKAEKEANPEGSDDGFTKVQTKKQKQKMNRKRRAQEALAAASEVKRVHHDIPVVIEDSERGELTKVIAIDCEYVGAGMGGTTDILARISIVNELGKIVYDKFVKPTEKVTDFRTAVSGIRPENMIKAIPFDRAQTEVSKLIDGRIVIGHAVHNDFRVLKLNHIRKLTRDTAKCTILKNMANHHGTPSLKKLAKEVLGIEIQRGEHDSITDARVALRLYEAVKKQWEAEIKRYR,not soluble
18,MTHNIHDNISQWMKSNEETPIVMSSRIRLARNLENHVHPLMYATENDGFRVINEVQDALPNFELMRLDQMDQQSKMKMVAKHLISPELIKQPAAAVLVNDDESLSVMINEEDHIRIQAMGTDTTLQALYNQASSIDDELDRSLDISYDEQLGYLTTCPTNIGTGMRASVMLHLPGLSIMKRMTRIAQTINRFGYTIRGIYGEGSQVYGHTYQVSNQLTLGKSELEIIETLTEVVNQIIHEEKQIRQKLDTYNQLETQDRVFRSLGILQNCRMITMEEASYRLSEVKLGIDLNYIELQNFKFNELMVAIQSPFLLDEEDDKSVKEKRADILREHIK,not soluble
